Laboratory results as given in PMC2992793 (Structure (London, England : 1993), 2010).
Where a chain is given by its changes, count along the chain named. In names and notes the source's numbering stands.

Tests used:
[1] = target: T1, His-tagged μ2C (μ2 170–435), wild type (rat, UniProt P84092 170-435); assay: pull-down
T1 sequence (looked up): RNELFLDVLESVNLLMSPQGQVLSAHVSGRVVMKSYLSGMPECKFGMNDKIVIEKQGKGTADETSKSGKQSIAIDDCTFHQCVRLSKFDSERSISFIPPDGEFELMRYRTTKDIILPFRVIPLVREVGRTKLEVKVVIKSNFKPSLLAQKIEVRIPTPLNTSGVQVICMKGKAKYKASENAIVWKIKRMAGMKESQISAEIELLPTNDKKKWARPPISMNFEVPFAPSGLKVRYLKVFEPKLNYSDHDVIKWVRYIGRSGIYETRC

[2] = target: T2, Dvl2 Lys446Ala (construct not stated) (murine, UniProt Q60838 1-736, Lys446Ala)
T2 sequence (looked up): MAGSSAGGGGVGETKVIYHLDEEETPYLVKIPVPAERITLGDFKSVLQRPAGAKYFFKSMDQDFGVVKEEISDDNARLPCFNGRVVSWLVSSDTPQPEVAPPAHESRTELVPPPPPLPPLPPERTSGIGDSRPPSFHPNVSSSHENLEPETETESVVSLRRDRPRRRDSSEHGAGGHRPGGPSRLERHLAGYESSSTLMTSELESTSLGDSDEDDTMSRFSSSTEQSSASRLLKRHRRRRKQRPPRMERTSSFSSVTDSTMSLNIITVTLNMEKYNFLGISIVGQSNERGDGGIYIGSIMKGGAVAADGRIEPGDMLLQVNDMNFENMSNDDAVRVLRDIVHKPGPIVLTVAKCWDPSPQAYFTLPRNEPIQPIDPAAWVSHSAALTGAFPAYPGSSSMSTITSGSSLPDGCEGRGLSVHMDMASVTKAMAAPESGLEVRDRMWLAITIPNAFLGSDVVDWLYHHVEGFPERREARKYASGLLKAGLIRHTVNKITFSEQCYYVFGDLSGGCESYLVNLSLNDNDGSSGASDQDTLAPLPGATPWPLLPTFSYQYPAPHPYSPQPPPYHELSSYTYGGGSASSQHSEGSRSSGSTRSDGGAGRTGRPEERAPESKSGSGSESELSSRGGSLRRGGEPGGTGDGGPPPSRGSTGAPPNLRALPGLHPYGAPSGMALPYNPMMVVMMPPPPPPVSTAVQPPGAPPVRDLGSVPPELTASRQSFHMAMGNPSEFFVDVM

[3] = target: T3, Dvl2 Lys446Met (construct not stated) (murine, UniProt Q60838 1-736, Lys446Met)
T3 sequence (looked up): T2 sequence (looked up) with A446M

GST-μ2C K213A = target: T4, GST-μ2C K213A (rat, UniProt P84092 170-435, Lys213 to alanine); assay: pull-down
T4 sequence (looked up): T1 sequence (looked up) with K44A

GST-μ2C K405A = target: T5, GST-μ2C K405A (rat, UniProt P84092 170-435, Lys405 to alanine); assay: pull-down
T5 sequence (looked up): T1 sequence (looked up) with K236A

GST-μ2C F407A = target: T6, GST-μ2C F407A (rat, UniProt P84092 170-435, Phe407 to alanine); assay: pull-down
T6 sequence (looked up): T1 sequence (looked up) with F238A

[4] = target: T7, GST-μ2C wild type (μ2 170–435) (rat, UniProt P84092 170-435); assay: pull-down
T7 sequence (looked up): T1 sequence (looked up)

GST-μ2C E211A = target: T8, GST-μ2C E211A (rat, UniProt P84092 170-435, Glu211 to alanine); assay: pull-down
T8 sequence (looked up): T1 sequence (looked up) with E42A

B1: GST-Dvl2 417–588, wild type (domain or fragment, murine, UniProt Q60838 417-588, looked up)
chain: LSVHMDMASVTKAMAAPESGLEVRDRMWLKITIPNAFLGSDVVDWLYHHVEGFPERREARKYASGLLKAGLIRHTVNKITFSEQCYYVFGDLSGGCESYLVNLSLNDNDGSSGASDQDTLAPLPGATPWPLLPTFSYQYPAPHPYSPQPPPYHELSSYTYGGGSASSQHSEG
- binding result [1]: binds

B2: GST-Dvl2 417–588 N451A (domain or fragment, murine, UniProt Q60838 417-588, looked up)
chain: B1 chain with N35A
- binding result [1]: binds

B3: GST-Dvl2 417–588 R489A (domain or fragment, murine, UniProt Q60838 417-588, looked up)
chain: B1 chain with R73A
- binding result [1]: binds

B4: GST-Dvl2 417–588 D441K (domain or fragment, murine, UniProt Q60838 417-588, looked up)
chain: B1 chain with D25K
- binding result [1]: binds

B5: μ2 (construct of the experiments not shown is not stated) (natural protein, rat, UniProt P84092 1-435, looked up)
chain: MIGGLFIYNHKGEVLISRVYRDDIGRNAVDAFRVNVIHARQQVRSPVTNIARTSFFHVKRSNIWLAAVTKQNVNAAMVFEFLYKMCDVMAAYFGKISEENIKNNFVLIYELLDEILDFGYPQNSETGALKTFITQQGIKSQHQTKEEQSQITSQVTGQIGWRREGIKYRRNELFLDVLESVNLLMSPQGQVLSAHVSGRVVMKSYLSGMPECKFGMNDKIVIEKQGKGTADETSKSGKQSIAIDDCTFHQCVRLSKFDSERSISFIPPDGEFELMRYRTTKDIILPFRVIPLVREVGRTKLEVKVVIKSNFKPSLLAQKIEVRIPTPLNTSGVQVICMKGKAKYKASENAIVWKIKRMAGMKESQISAEIELLPTNDKKKWARPPISMNFEVPFAPSGLKVRYLKVFEPKLNYSDHDVIKWVRYIGRSGIYETRC
- fold decrease of μ2 affinity against wild-type Dvl2 [2]: ~2 fold
- fold decrease of μ2 affinity against wild-type Dvl2 [3]: ~2 fold

B6: His-tagged Dvl2 407–588 (domain or fragment, murine, UniProt Q60838 407-588, looked up)
chain: SLPDGCEGRGLSVHMDMASVTKAMAAPESGLEVRDRMWLKITIPNAFLGSDVVDWLYHHVEGFPERREARKYASGLLKAGLIRHTVNKITFSEQCYYVFGDLSGGCESYLVNLSLNDNDGSSGASDQDTLAPLPGATPWPLLPTFSYQYPAPHPYSPQPPPYHELSSYTYGGGSASSQHSEG
- binding result (GST-μ2C K213A): binds
- binding result (GST-μ2C K405A): binds
- binding result (GST-μ2C F407A): binds
- binding result [4]: binds
- binding result (GST-μ2C E211A): binds
